The numbers were not newly measured in article PMC11430116, which cites them from elsewhere.

The target in this data set is VDAC1 (Homo sapiens) (UniProt P21796).
Sequence of UniProt P21796 (P21796 2-283): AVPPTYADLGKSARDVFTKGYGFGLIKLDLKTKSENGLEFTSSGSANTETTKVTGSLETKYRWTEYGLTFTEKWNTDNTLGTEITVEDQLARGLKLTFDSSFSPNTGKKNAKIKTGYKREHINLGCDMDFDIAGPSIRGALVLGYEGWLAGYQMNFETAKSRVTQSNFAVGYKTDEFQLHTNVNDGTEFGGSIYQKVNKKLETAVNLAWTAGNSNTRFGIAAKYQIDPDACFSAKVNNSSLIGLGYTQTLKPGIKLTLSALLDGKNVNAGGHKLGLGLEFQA

One may read the Kd as a measure of binding affinity in units of concentration. For MAVS (from UniProt Q7Z434), the Kd was 0.95 µM.
